One experiment concerns VEGFR-2. As to the kind of experiment: In vitro transcription/translation of VEGFR-2. It is filed as biochemical. On the procedure: FIG. 1A. HEK-293 cells expressing VEGFR-2 were transfected with different concentrations of C-terminus Myc-tagged PDCL3. After 48 hours cells were lysed and whole cell lysates (WCL) were blotted for VEGFR-2, PDCL3 and Hsp70 for loading control. Quantification of premature (newly synthesized and partially glycosylated VEGFR-2 corresponding to lower molecular weight) and mature (fully glycosylated) forms of VEGFR-2 is shown. Mean results of three independent experiments are shown. *P=0.04 and […]. FIG. 1B. Human umbilical vein endothelial cells (HUVECs) were transfected with control siRNA or PDCL3-siRNA. After 48 hours cells serum-starved for overnight followed by stimulation with VEGF for 10 minutes. Cells were lysed and whole cell lysates were blotted for phospho-Y1054-VEGFR-2, total VEGFR-2, PDCL3 and Hsp70 for loading control. FIG. 1C. Thermo-induced aggregation of VEGFR-2 was measured using PSA dye as described in the materials and method section. FIG. 1D. In vitro transcription/translation of VEGFR-2 in the absence or presence of exogenous recombinant PDCL3 was performed as described in the materials and method section and schematic of the procedure is shown. FIG. 1E. In vitro translated VEGFR-2 protein in the absence or presence of exogenous recombinant PDCL3 was blotted for VEGFR-2. FIG. 1F. […]

The subject of experiment [1] is VEGFR-1, CSF-1R and PDGFRβ. Briefly: Cell-free protein synthesis, rabbit reticulocyte transcription/translation system. To be noted: TNT Quick Coupled Transcription/Translation System. It is filed as biochemical. How it is done:
FIG. 12A. Schematic of the experiment is shown. FIG. 12B. In vitro translation and transcription was performed as recommended by the manufacturer except in one group recombinant PDCL3 was added into reaction mixture.
To test whether PDCL3 also could increase expression of cell surface receptors in a cell-free protein synthesis system, we tested the effect of PDCL3 in rabbit reticulocyte system.

B1: recombinant PDCL3 protein: exogenous recombinant PDCL3 protein added to in vitro translation; purified GST-PDCL3 in aggregation assay (protein)
chain: MQDPNADTEWNDILRKKGILPPKESLKELEEEAEEEQRILQQSVVKTYEDMTLEELEDHEDEFNEEDERAIEMYRRRRLAEWKATKLKNKFGEVLEISGKDYVQEVTKAGEGLWVILHLYKQGIPLCALINQHLSGLARKFPDVKFIKAISTTCIPNYPDRNLPTIFVYLEGDIKAQFIGPLVFGGMNLTRDELEWKLSESGAIMTDLEENPKKPIEDVLLSSVRRSVLMKRDSDSEGD
modifications: left off: small tags and cut ends
notes: exogenous recombinant PDCL3 protein added to in vitro translation; purified GST-PDCL3 in aggregation assay
Turning to B1, in the experiment on VEGFR-2, the “yield of in vitro translated VEGFR-2” value was “significantly increases the yield of in vitro translated VEGFR-2”. Further, the “expression of VEGFR-1, CSF-1R and PDGFRβ” value in experiment [1] was “significantly increased expression of VEGFR-1, CSF-1R and PDGFRβ”.

For the origin of these results see US11406709B2, “Therapeutic and research application of PDCL3” (TRUSTEES OF BOSTON UNIVERSITY, priority 2014, dated 2022).
